Test results: the DeepSol protein solubility set

Test: soluble on expression in E. coli; label from the status in PepcDB or PDB records

Row | Sequence | soluble on expression in E. coli
1 | MGSDKIHHHHHHMKVKLLSALNDNNVDMAQTNSQRQLAMTIFAIAGEFDQNLPLNLCLILDRSGSMHGQPIKTVIQAVEGLIDRLKVGDRISVVAFSGSVEVIIPNQVIEDPESIKSQIKSKLSASGGTAIAEGLELGITELMKGTRGAVSQAFLLTDGHGESSLRIWKWDIGRDDNKRCLKLAQKAAKLNLTINTFGFGNSWNQDLLEKIADVGGGTLAHIEHPEQAVEQFSRLFGRIQSIGLTNAYLLLSLVPNVRLAELKPIAQVAPDTIELPVERETDGSFAVRLGDLMQDVERVVLANIYLGQLPEGKQAIGHLQIRYDDPMVNQEDLLSPLMPIYADVVRAYQPASNPQVQQSILALAKYRQTQLAEAKLLQGDRTGAATMLQTAAKTALQIGDKGAATVLQTSATRLQAGEELSEADLKKTRIVSKTVLQE | not soluble
2 | MNTPFDFPEGAGRLVYVRPVPVAELPEDVQSMARGLDHIYALHGADGERLALVRDRHLAFVLARQNDLAPVNVH | not soluble
3 | MMTDRTERRRRLTHAACTPSANNQRTTRLPPHPGFFSWSNPACDDGLFLYRTTVSRGVDTQRRRRSHPGFFSCRYHPSTVSLARRHRGPGKRISLRTEISKDADPISTVTETRWFLLNFQCIEPPLEHHHHHH | soluble
4 | MDPKKADIIRLEALPQDLLGGIVAKVGATTAEDFHNCILVCKELGASANDKHVFKTLNLALLVKKPLSGTQTPSYYENMS | soluble
5 | MHNMFPALTKTLSLQGYKIINSQTGSAAWSCGRRWFSSDKDDHDDVVTRIKIAPIKRTNEPLDKKRARLIYQSRKRGILETDLLLSGFAAKYLKKMNEEELEEYDSLLNELDWDIYYWATKNFKTSPLPDKWANSKLLKQLQEFSENKEKEILSMPDLSKYQ | soluble
6 | GPGSMFNVVLVEPEIPPNTGNVIRLCANTGARLHLIEPLGFPLDDAKMRRAGLDYHEYAQMRVHRDWDAFVAAEAPDPARMFAFTTRGSGRFHDRAFEPGDWFVFGAETRGLAPALVDRFAPEQRVRLPMRPGNRSLNLSNTVAVVVFEAWRQAGFEGGA | soluble
7 | MGSSHHHHHHSSGLVPRGSHMASMTGGQQGRDPFESYNPEFFLYDIFLKFCLKYIDGEICHDLFLLLGKYNILPYDTSNDSIYACTNIKHLDFINPFGVAAGFDKNGVCIDSILKLGFSFIEIGTITPRGQTGNAKPRIFRDVESRSIINSCGFNNMGCDKVTENLILFRKRQEEDKLLSKHIVGVSIGKNKDTVNIVDDLKYCINKIGRYADYIAINVSSPNTPGLRDNQEAGKLKNIILSVKEEIDNLEKNNIMNDEFLWFNTTKKKPLVFVKLAPDLNQEQKKEIADVLLETNIDGMIISNTTTQINDIKSFENKKGGVSGAKLKDISTKFICEMYNYTNKQIPIIASGGIFSGLDALEKIEAGASVCQLYSCLVFNGMKSAVQIKRELNHLLYQRGYYNLKEAIGRKHSKS | soluble
8 | MDPTQISHLALDIGGTLIKLVYFSANGDYSEESRNGCSVVKGRLCFAKFETRKIDDCLEFIRFNILHHSEVTIQVYSNRMAKATGGGAFKFADLFKEKLGILFDKEDEMCSLVGGVNFLLKTVPREAFTYLDGQKKFVEIDHNDLYPYLLVNIGSGVSMIKVDGDGKYERISGTSLGGGTFLGLGKLLTKCKSFDELLELSHHGNNRVIDMLVGDIYGGTDYSKIGLSSTAIASSFGKAISDGKELEDYQPEDVARSLLRMISNNIGQIAYLNALRFGLKRIFFGGFFIRGLEYTMDTISVAVHFWSRGEAKAMFLRHEGFLGALGAFTSYNDQSHNDLKPHHHTVQRAILNCSGHNFRHIPVTSNLNESETIECSINLV | soluble
9 | EVVVTGMQKMDKRLFTGATQQLTADNVKLDGLPDISRGLEGRAAGVSVQNVSGTFGTAPKIRVRGATSIYGSSKPLWVVDGVIMEDAIDVGPDDLSSGDAETLISSAIAGLNSDDIESFQILKDGSATSIYGARAMAGVIVVTTKKGK | not soluble
10 | MEPTGLMVAAPTASLPEAIGGERNWDYRFTWIRDTAYVIEALSSIGYKYEATEFLYDMMDMITRDNRIRTIYSIDDSNDLEERIIDYEGYRGSRPVRIGNKAVDQLQIDQYGSIVRAIHSMAKAGGIVNSYLWDFVEQVMAKIEYLWKYPDSSIWEFRTEPKQYVYSKVMSWAAFDSAISMAKDLGLSAPIKQWKSIQDEIKKEVLEKGFDTDTNSFVQYYGSKNIDAALLRLPILGFIPANDEKFLGTLSRIEKELMVDGYLFKRYREDDGLKGDEGSFLMLTFWYIEDLILMKRLKKAREVLESVLEKANHLGLYSEEIDEKSGDFLGNFPQALSHLGVIRVAPKLEEALLKRTSKINSLEHHHHHH | not soluble
11 | MSLENKKMEFWFVVGSQHLYGEEALKEVRKNSETIVDELNKSANLPYKIIFKDLATSADKIKEIMKEVNYRDEVAGVITWMHTFSPAKMWIAGTKILQKPLLHFATQYNENIPWKTIDMDYMNLHQSAHGDREYGFINARLKKHNKVVVGYWKDKEVQKQVSDWMKVAAGYIASESIKVARFGDNMRNVAVTEGDKVEAQIQFGWTVDYFGIGDLVAEMDKVSQDEINKTYEEFKDLYILDPGENDPAFYEKQVKEQIKIEIGLRRFLEKGNYNAFTTNFEDLYGMKQLPGLAVQRLNAEGYGFAGEGDWKTAALDRLLKVMTNNTATGFMEDYTYELSRGNEKALGAHMLEVDPTFASDKPKVIVKPLGIGDKEDPARLIFNGSTGKGVAVSMLDLGTHYRLIINGLTAVKPDEDMPNLPVAKMVWKPEPNFIEGVKSWIYAGGGHHTVVSLELTVEQVYDWSRMVGLEAVIIDKDTKLRDIIEKTTEGHHHHHH | soluble
12 | MRMAQVVLENVTKVYENKVVAVKNANLVVEDKEFVVLLGPSGCGKTTTLRMIAGLEEITDGKIYIDGKVVNDVEPKDRDIAMVFQNYALYPHMTVYENMAFGLKLRKYPKDEIDRRVREAAKILGIENLLDRKPRQLSGGQRQRVAVGRAIVRNPKVFLFDEPLSNLDAKLRVQMRSELKKLHHRLQATIIYVTHDQVEAMTMADKIVVMKDGEIQQIGTPHEIYNSPANVFVAGFIGSPPMNFVNARVVRGEGGLWIQASGFKVKVPKEFEDKLANYIDKEIIFGIRPEDIYDKLFALAPSPENTITGVVDVVEPLGSETILHVKVGDDLIVASVNPRTQAKEEQKIDLVLDMTRMHAFDKETEKAII | soluble
13 | MKPTERRILLGRIVGAFGVKGELKLESWTEPRSAIFRYQPWIVRTPSGQESVLSGVRGRDQGKNLIAVFPDITDRDTVEAMHGTEIYVARSALPPPKPDEYYWVDLEGLQVETVEGVKLGTVSHLFSTGSNDVVVVRGDRERMIPFVLPEYVKSVDFEANLIVVDWDPDFLEHHHHHH | soluble
14 | MSLSWADKYRPKNIDDVILNSEIRKQITEWIESWKEGIPKKRSLILYGSQGTGKTTTAYAIAGTFGVPVVEMNASDQRNRDSMRGTALMASLYGDLFVESAKRPSKVILIDEADNMFERGGDTGGIYELSKIIKNSANPIVITMNDIFEFRKKNYASDVISASLTIEMKQYGRKLDKNYNEFRRNIKARLIFILKNEGYTLPDQVVDRIIDRNMPDIRSMINDLEASAVSGTNISDEGHHHHHH | soluble
15 | MSLKSDNDVVITGVGIVTCHGVGSQAHVALLSGAAVPEPVVETEKFKPYPVHPMPEIDWSAQIAKRGDQRQMENWQRLGVFAAGLALDDAGLKENTEACATMDMIVAAGGGERDINVDTLIVDEALKRNDREKLLNEKLTTELRPTLFLAQLSNLMAGNISIVHKVTGSSRTFMGEEAAGISAVETAFHRIRSGESSHALVGGAFSAERPDMILLFEAIGAHAQGGWQPLWSRGDQDGGGMISGSLGAFLVLESRKHASERGARIYARIDAIEGDRGSRDDGKMEKRMERLLAPAKDSAATVVFSGASGYDEVTVREKDILEKVLPNSVIRGFGGVTGHGLEAQFPLGLALAALTLESGAKVPTFDAAAEKPMGEAATEAVVTTVGHVRGEGVAVLSRDVEGHHHHHH | soluble
16 | MSLGDQLKIIQDGQSFAFSLDTLLLAYWAKEAIKNRSKVVELCSGNAAASLYMAAFNKAHYDDVELQEDIVSKARRSVELNDMQDRITVHQGNVKDAGSFLRKDSYDVVVVNPPYFKAPAGHKLNPDRSKAIARHELEINLEEIIAVSAGLLKMKGKMFMVHRPERLGEIINYGFKHDLAVKTVQPFVSRRGQDANLVIVEAVRSGKGDGLVLRDAIEVHEADGSNTPAIKEILEAKEGHHHHHH | soluble
17 | MSDEESFVILGSSPCSSLMPDSSLRSDVCGNAQEAKETVASTSTQPPTVNCIPVSITASQQQHKSLDSGSSQQQSLATSFIMGEIQSDVLKNSVYSQFPSLCSLQGSAEEVVKLQNMMTEYLALKSQPNHAELPQPDSTMAPGSRRPRTPVQGACERVPSANRDPSRGKPRAEEGPRDENRADLEHHHHHH | not soluble
18 | MSLSSGEHEASRVLRERDYRWEGTEEEAYKAEGTHFSGARRQTLVGRPAGQEAPAFETRYFEVEPGGYTTLERHEHTHVVMVVRGHAEVVLDDRVEPLTPLDCVYIAPHAWHQIHATGANEPLGFLCIVDSDRDRPQRPDADDLARMCADPAVARRIRTEGHHHHHH | soluble
19 | MKITLSKRIGLLAFLLPCALALSTTVHAETNKLVIESGDSAQSRQHAAMEKEQWNDTRNLRQKVNKRTEKEWDKADAAFDNRDKCEQSANINAYWEPNTLRCLDRRTGRVITPLEHHHHHH | not soluble
20 | MGSDKIHHHHHHMNNSEKMLVCLDQQDLDKADKYFKRALVQDDSETLLSLAAYLEGIGFFPQARQIYEQVKEEFPEVLINLAQIAFEDGLVEEAFRYLEEISEDSSIYVEALLVKADLYQAEGLSDVAREKLLEASHLSDKPIILFGLAELDMELELFNEAISYYAQLDNREIYELTGISTYQRIGIAYASLGKFEAAIEFLEKAVELEYDDQTVFELAALLFEREEYQKANLYFKQLDTINPDFEGYEYAYAQSLHAEHKIDDALAMTQKGLAKNDFDANLLFQASQYAYELHDEAGAEDYLLRAKEVADDSNELALRLSNLYLEQERFEEVVALFDEEVDNVLARWNKAKAYQALERDDEAIALYDELAGELAENPEFLADYVAVLRQLGRLDEAKEQASRYIQLVPDDLAMQEFLNEE | not soluble
21 | GPGSMGCGDSKVRQGGPSRPPPPRGGPNSASTKVEGRANGPNEETSRVESKGSAPPEPEVNSTPVPTKPLGNGVDNSGAEKTNAPPTGSAPPAQNCSQQIELDDEGNALVLPKGEWVRTEGTPFYYSDAENLYFHPPSCQFYDPTNEMWYDPEQDEWYRDDDPAE | not soluble
22 | MSLDSKIDILIVVNMFLTGFDSKVLNTLYVDKNLMYHDLIQAYSRTNRVEKESKPFGKIVNYRDLKKETDDALRVFSQTNDTDTILMRSYEEYKKEFMDAYRELKMIVPTPHMVDDIQDEGHHHHHH | not soluble
23 | GSMDQNTTEPVAATETLAEVPEHVLRGLPEEVRLFPSAVDKTRIGVWATKPILKGKKFGPFVGDKKKRSQVKNNVYMWEVYYPNLGWMCIDATDPEKGNWLRYVNWACSGEEQNLFPLEINRAIYYKTLKPIAPGEELLVWYDGEDNPEIAAAIEEERASARS | soluble
24 | MSGIKPSVSKGESQAPQTRQLEASKPTVQGIIDILHDTISYVQVEKQSKTINFSIPHLQMIKEQLESIQLKDKNYKDLEKKFNEKQDEHLETIQKLDSTLSRQKLKYDDMRQALSVKIYTLENECSNLQDNYADLQNDFEVQIEKFKKLQNLKSIQNHENSKNVNPLTLDELTEQLKQFKEELSIDQKLKNIQLTCEGLQSAVGNFEMNSKKAKEIEILKMDIKKTQELYESRLLRAAQENKKLLRKNDTLKNYLDNQTAKIGELTAGNKTENRSPTPTLQGLIEILQKFSDDQKLEPECKMLQLHKEECRLILESLEVHDKKDQEIQWFQRQINDQKKRIANLGWSYENALEDKDALELKLEHQYEQMMELKKNFIPKNEISEDLAKTVRNFGKRLRNSRGNLKNAFKELEALKEVQEEEGSSDESSESSASDDLPDGDSSSEE | not soluble
